Source: US20100209422A1 (ROCKEFELLER UNIVERSITY, published 2010)

Assays:
[1] = target: T1, protofibrillar (PF) form of Aβ42 (human); experiment: SPR (BIAcore), ratio of PF binding to LMW binding
T1 construct: also called PF Aβ42; protofibril form of Aβ
Experimental: (§1) The purified monoclonal antibodies listed in Table 1 (below), were immobilized to a BIAcore sensor chip in accordance with publish protocols. (Nice, et al. BioEssays 21: 339-352 (1999)). The high sensitivity of the BIAcore optical response quantifies a change in reflectivity and a baseline response for the ligand alone is generated. The interaction analysis is performed as the analytes, the LMW form or the PF form of […], are injected in solution over the sensor chip and the change in surface plasmon resonance generates a response identifying the specificity of each antibody's ability to bind LMW and PF Aβ42. Both the 13C3 and the 19A6 antibodies all bound to the PF form of Aβ 42 with higher specificity than the LMW form.
Automated BIAcore systems, which use the detection principle of Surface Plasmon Resonance, were used in these experiments.

[2] = target: T1, protofibrillar (PF) form of Aβ42; experiment: SPR (BIAcore), ratio of PF binding to LMW binding; remark: listed apart in the source
Experimental: as §1

T1 sequence (peptide, as listed by the source): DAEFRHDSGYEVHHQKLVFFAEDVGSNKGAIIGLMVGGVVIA

B1: monoclonal antibody 13C3 (antibody, IgG1, V domains shown)
VH: QVQLQQSGPELVRPGVSVKISCKGSGYTFTDYAMHWVKQSHAKSLEWIGVISTKYGKTNYNQKFKGKATMTVDKSSSTAYMELARLTSEDSAIYYCARGDDGYSWGQGTSVTVSS
VL: DVVMTQTPLSLPVSLGDQASISCRSGQSLVHSNGNTYLHWYLQKPGQSPKLLIYTVSNRFSGVPDRFSGSGSGSDFTLKISRVEAEDLGVYFCSQNTFVPWTFGGGTKLEIKR
notes: Hybridoma ATCC PTA-8830; also called mAb 13C3; anti-Aβ antibody clone 13C3
binding ratio (PF/LMW) [1]: 5.3
Ratio (PF/LMW) [2]: 5
